The values that follow come from patent US20240325555A1.

In one experiment the target is T1, mouse LIV-1 (mouse) (UniProt Q8C145).
T1 sequence (looked up): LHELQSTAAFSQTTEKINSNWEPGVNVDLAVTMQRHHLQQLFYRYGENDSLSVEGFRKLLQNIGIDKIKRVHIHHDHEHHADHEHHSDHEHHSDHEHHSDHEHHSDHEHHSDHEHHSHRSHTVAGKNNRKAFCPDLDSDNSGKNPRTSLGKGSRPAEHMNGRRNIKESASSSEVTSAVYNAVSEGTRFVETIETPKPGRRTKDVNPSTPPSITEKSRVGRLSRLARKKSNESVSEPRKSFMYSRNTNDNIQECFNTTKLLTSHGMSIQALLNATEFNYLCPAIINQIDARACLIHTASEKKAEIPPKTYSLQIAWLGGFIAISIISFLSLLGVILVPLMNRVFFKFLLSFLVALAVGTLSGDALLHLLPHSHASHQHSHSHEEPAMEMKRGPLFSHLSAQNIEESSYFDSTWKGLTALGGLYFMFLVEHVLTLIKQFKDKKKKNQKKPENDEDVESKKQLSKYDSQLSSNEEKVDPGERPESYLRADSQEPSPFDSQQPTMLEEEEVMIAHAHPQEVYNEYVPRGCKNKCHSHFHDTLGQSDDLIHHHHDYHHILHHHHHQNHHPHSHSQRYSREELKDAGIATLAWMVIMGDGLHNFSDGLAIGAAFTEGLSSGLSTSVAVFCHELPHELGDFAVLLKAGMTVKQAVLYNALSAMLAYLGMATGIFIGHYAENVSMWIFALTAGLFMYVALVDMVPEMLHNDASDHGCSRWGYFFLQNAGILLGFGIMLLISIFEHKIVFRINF
In words: FACS, HEK293/Mouse_LIV-1 cells. In general terms: In flow cytometry, cells or beads pass a laser one at a time.

The target of a further experiment is T2, rat LIV-1 (rat) (UniProt Q4V887).
T2 sequence (looked up): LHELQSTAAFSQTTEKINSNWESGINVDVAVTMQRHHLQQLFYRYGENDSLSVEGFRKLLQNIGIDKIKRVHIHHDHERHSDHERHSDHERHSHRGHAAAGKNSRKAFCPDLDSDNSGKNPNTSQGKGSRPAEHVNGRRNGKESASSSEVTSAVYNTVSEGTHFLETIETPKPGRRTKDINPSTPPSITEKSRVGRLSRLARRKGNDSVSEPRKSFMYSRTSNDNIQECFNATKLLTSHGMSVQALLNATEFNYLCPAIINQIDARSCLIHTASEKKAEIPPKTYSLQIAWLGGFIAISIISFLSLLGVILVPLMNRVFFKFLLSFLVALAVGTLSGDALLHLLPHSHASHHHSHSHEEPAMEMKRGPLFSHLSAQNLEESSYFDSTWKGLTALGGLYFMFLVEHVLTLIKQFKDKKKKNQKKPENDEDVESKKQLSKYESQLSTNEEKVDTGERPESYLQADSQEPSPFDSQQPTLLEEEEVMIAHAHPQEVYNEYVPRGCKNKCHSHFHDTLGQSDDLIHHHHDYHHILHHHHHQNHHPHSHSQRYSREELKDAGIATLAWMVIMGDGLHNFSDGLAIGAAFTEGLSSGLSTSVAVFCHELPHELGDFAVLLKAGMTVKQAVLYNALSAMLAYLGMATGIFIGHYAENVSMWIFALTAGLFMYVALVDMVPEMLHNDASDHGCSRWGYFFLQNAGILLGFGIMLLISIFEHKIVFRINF
In words: FACS, HEK293/Rat_LIV-1 cells.

Regarding hIgG1 Isotype (antibody), the Top (MFI) in the experiment with mouse LIV-1 (mouse) was 114 MFI; with rat LIV-1 (rat), 119 MFI.
